Laboratory results published in US20110124576A1 (NOVOZYMES A S, published 2011).
Numbering of substitutions follows the chain as printed. Names and notes keep the numbering of the source.

B1: recombinant human transferrin (S415A, T613A) (ligand)
chain: VPDKTVRWCAVSEHEATKCQSFRDHMKSVIPSDGPSVACVKKASYLDCIRAIAANEADAVTLDAGLVYDAYLAPNNLKPVVAEFYGSKEDPQTFYYAVAVVKKDSGFQMNQLRGKKSCHTGLGRSAGWNIPIGLLYCDLPEPRKPLEKAVANFFSGSCAPCADGTDFPQLCQLCPGCGCSTLNQYFGYSGAFKCLKDGAGDVAFVKHSTIFENLANKADRDQYELLCLDNTRKPVDEYKDCHLAQVPSHTVVARSMGGKEDLIWELLNQAQEHFGKDKSKEFQLFSSPHGKDLLFKDSAHGFLKVPPRMDAKMYLGYEYVTAIRNLREGTCPEAPTDECKPVKWCALSHHERLKCDEWSVNSVGKIECVSAETTEDCIAKIMNGEADAMSLDGGFVYIAGKCGLVPVLAENYNKADNCEDTPEAGYFAVAVVKKSASDLTWDNLKGKKSCHTAVGRTAGWNIPMGLLYNKINHCRFDEFFSEGCAPGSKKDSSLCKLCMGSGLNLCEPNNKEGYYGYTGAFRCLVEKGDVAFVKHQTVPQNTGGKNPDPWAKNLNEKDYELLCLDGTRKPVEEYANCHLARAPNHAVVTRKDKEACVHKILRQQQHLFGSNVADCSGNFCLFRSETKDLLFRDDTVCLAKLHDRNTYEKYLGEEYVKAVGNLRKCSTSSLLEACTFRRP
notes: Secreted from S. cerevisiae; 55Fe-loaded (diferric) in the K562 assay; also called Deltaferrin; rTf
B2: recombinant thiotransferrin (S28C, S415A, T613A) (ligand)
chain: B1 chain with S28C
modifications: free thiol at Cys 28
notes: Iron-loaded in SPR, 55Fe-loaded in the K562 assay; also called from Strain 1 [pDB3767]
B3: recombinant thiotransferrin (S415C, T613A) (ligand)
chain: B1 chain with A415C
modifications: free thiol at Cys 415
notes: Iron-loaded in SPR, 55Fe-loaded in the K562 assay; also called from Strain 1 [pDB3773]
B4: fluorescein conjugated thiotransferrin (S415C, T613A) (ligand)
chain: B1 chain with A415C
modifications: fluorescein-5-maleimide conjugated to the free thiol of Cys 415
notes: Iron-loaded in SPR, 55Fe-loaded in the K562 assay; also called Fluorescein conjugated recombinant thiotransferrin (S415C, T613A)
B5: fluorescein conjugated thiotransferrin (S28C, S415A, T613A) (ligand)
chain: B1 chain with S28C
modifications: fluorescein-5-maleimide conjugated to the free thiol of Cys 28
notes: Iron-loaded in SPR, 55Fe-loaded in the K562 assay; also called Fluorescein conjugated recombinant thiotransferrin (S28C, S415A, T613A)

target: T1, transferrin receptor on human erythroleukemic K562 cells (human, UniProt P02786 1-760); experiment: specific 55Fe uptake from labelled diferric transferrin into K562 cells, 25 min at 37 C, 12.5-2000 nM; unspecific uptake (hundredfold unlabelled transferrin) subtracted; mean ± S.E.M. of three experiments
T1 construct: whole, on cells; also called TfR
T1 sequence (P02786 whole entry): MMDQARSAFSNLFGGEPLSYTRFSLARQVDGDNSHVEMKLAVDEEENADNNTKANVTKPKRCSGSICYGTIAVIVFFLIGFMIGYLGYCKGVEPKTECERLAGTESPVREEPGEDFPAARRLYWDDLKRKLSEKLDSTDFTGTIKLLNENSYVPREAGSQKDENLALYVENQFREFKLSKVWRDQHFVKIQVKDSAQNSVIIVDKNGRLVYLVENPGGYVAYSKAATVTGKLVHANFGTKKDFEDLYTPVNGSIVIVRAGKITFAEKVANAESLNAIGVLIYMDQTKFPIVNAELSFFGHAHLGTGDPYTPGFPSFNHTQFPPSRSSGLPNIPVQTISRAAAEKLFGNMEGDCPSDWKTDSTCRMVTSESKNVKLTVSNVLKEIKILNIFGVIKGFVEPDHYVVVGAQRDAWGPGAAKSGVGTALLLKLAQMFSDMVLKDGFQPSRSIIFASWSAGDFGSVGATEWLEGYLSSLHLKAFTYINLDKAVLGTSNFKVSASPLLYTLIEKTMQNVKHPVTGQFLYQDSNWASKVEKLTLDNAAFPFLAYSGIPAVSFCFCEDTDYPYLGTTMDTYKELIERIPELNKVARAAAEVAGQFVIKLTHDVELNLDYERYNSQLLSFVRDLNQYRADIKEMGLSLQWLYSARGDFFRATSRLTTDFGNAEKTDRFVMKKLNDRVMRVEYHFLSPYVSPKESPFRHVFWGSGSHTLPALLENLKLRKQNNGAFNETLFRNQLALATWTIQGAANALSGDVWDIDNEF
Protocol: Iron uptake from labelled diferric transferrins was performed as follows. K562 erythroleukemic cells, cultured in RPMI cell culture medium under standard conditions (bicarbonate-buffered, 5% CO₂, antibiotics, 10% foetal calf serum) were washed with serum-free medium containing HEPES-buffer and 1 mg/ml of bovine serum albumin and used at a concentration of 10 million cells/ml in this medium.
The reaction was started by the addition of 50 μl of cell suspension.
After 25 min at 37° C. the reaction was stopped by immersion into an ice-bath, three aliquots of 30 μL of cell suspension were transferred to new tubes and the cells were centrifuged in the cold and again after addition of an oil layer of diethylphtalate/dibutylphthalate. The supernatant was removed, the cell pellet transferred into a counter vial and lysed with 0.5 M KOH+1% Triton X-100. The lysates were neutralized with 1M HCl after overnight lysis, mixed with Readysolv scintillation cocktail and counted in the Packard Liquid Scintillation Counter.

Point of comparison: B3, Kd 203 nM. Against it:
- B1 — 1.6-fold lower, 130 nM
- B2 — within 1.5-fold, 209 nM
- B4 — within 1.5-fold, 189 nM
- B5 — within 1.5-fold, 154 nM

target: T1, transferrin receptor on human …; experiment: cell-based or functional assay

B2 and B3 cannot be ordered by “specific iron uptake into K562 cells” value: > 5 % of the level for the transferrin (S415A, T613A) control for the first, > 5 % of the level for the transferrin (S415A, T613A) control for the second.

B4 and B5 cannot be ordered by “specific iron uptake into K562 cells” value: > 5 % of the level for the transferrin (S415A, T613A) control for the first, > 5 % of the level for the transferrin (S415A, T613A) control for the second.

target: T1, transferrin receptor on human …; experiment: cell-based or functional assay; remark: another data set of the same source

Point of comparison: B5, “Specific iron uptake Bmax” value 2430 fmol 55Fe/10^6 cells x 25 min. Against it:
- B1 — higher, 2830 fmol 55Fe/10^6 cells x 25 min
- B2 — higher, 3020 fmol 55Fe/10^6 cells x 25 min
- B3 — lower, 2360 fmol 55Fe/10^6 cells x 25 min
- B4 — higher, 3250 fmol 55Fe/10^6 cells x 25 min
